Residue numbers refer to the chain shown, from its start. Where no end group is shown, it is not given here.

Assay [1] concerns the target charged UFC1 (UFC1~UFM1): isopeptide‐linked UFC1 T106S/C116K ‐ Strep‐tagged UFM1 covalent complex (UniProt Q9Y3C8). The assay is described as follows: ITC. For orientation: ITC needs no label: the signal is the heat of the interaction.
A further assay concerns the target T1, UFC1 K47E (UniProt Q9Y3C8 1-167, K47E).
T1 sequence: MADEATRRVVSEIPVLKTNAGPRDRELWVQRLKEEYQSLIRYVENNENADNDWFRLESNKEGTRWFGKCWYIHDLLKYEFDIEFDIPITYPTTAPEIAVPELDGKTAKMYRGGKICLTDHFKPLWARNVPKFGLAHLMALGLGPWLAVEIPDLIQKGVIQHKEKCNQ
The assay is described as follows: ITC.

In assay [2] the target is T2, UFC1 (E2), wild type, uncharged (UniProt Q9Y3C8 1-167).
T2 sequence: T1 sequence with E47K
The assay is described as follows: ITC.

Assay [3] has as its target T2, UFC1 (E2), wild type, uncharged. Nature of the assay: NMR titration.

“DDRGK1‐UFL1 fusion protein (DDRGK1 207–314 ‐ UFL1 1–200) (from UniProt Q96HY6;O94874)”: the Kd in assay [1] was 2570 nM.
Still for that read-out and setting: the result for “DDRGK1ext‐UFL1 extended fusion protein (DDRGK1 87–314 ‐ UFL1 1–200) (from UniProt Q96HY6 87-314; O94874 1-200)” reads 230 nM.

B1: DDRGK1‐UFL1 fusion protein (DDRGK1 207–314 ‐ UFL1 1–200) (other)
chain: MTEEQSQSFLTEFINYIKQSKVVLLEDLASQVGLRTQDTINRIQDLLAEGTITGVIDDRGKFIYITPEELAAVANFIRQRGRVSIAELAQASNSLIAWGRESPAQAPAMADAWEEIRRLAADFQRAQFAEATQRLSERNCIEIVNKLIAQKQLEVVHTLDGKEYITPAQISKEMRDELHVRGGRVNIVDLQQVINVDLIHIENRIGDIIKSEKHVQLVLGQLIDENYLDRLAEEVNDKLQESGQVTISELCKTYDLPGNFLTQALTQRLGRIISGHIDLDNRGVIFTEAFVARHKARIRGLFSAITRP
Take B1: the Kd with UFC1 K47E was determined as 33.8 µM; in assay [2] it was 2300 nM.

B2: UBA5 C‐terminus (UBA5 347–404) (domain or fragment)
chain: SEVSEEELKNFSGPVPDLPEGITVAYTIPKKQEDSVTELTVEDSGESLEDLMAKMKNM
modifications: also: uniformly 15N-labelled
Take B2: in assay [3], the binding result was “binds”.

A word on the Kd: it is the free concentration of one partner at which half of the binding sites on the other are occupied at equilibrium, for simple one-to-one binding.

The values above are taken from publication PMC10702826 (EMBO Reports, 2023).
